Our source for the Kd values is US20050239134.

The series has as its target TGF-beta-1 (TGF-β1 homodimer) (Homo sapiens?) (UniProt P01137). As to the kind of experiment: EMSA. To be noted: PS at dA and dC (5' of A and C; from dATP(αS)/dCTP(αS)); apparent; naive library control; room temp 30 min.

pKd: −log10 of the molar value.

Chain of TGF-beta-1 (TGF-β1 homodimer) (Homo sapiens?) (P01137 279-390): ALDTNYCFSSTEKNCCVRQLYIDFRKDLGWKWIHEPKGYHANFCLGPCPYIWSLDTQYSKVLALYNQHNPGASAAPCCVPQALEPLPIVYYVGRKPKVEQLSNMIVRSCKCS

Turning to “CAGTCCGGATGCTCTAGAGTGACNNNNNNNNNNNNNNNNNNNNNNNNNNNNNNCGAATCTCGTGAAGCCGAGCG [initial 74-mer N30 thiophosphate ssDNA library]”, the pKd was 4.96.
